Experimental data taken from patent US5039791A, “Peptide fragments of tissue plasminogen activator” (Monsanto Company, priority 1989, dated 1991).
Where no end group is shown, it is not given here.

Target: T1, fibrin (Homo sapiens, UniProt P02671+P02675+P02679)
T1 construct: purchased Kabi Vitrum
T1 sequence (P02671 20-644 isoform P02671-2 limits assumed): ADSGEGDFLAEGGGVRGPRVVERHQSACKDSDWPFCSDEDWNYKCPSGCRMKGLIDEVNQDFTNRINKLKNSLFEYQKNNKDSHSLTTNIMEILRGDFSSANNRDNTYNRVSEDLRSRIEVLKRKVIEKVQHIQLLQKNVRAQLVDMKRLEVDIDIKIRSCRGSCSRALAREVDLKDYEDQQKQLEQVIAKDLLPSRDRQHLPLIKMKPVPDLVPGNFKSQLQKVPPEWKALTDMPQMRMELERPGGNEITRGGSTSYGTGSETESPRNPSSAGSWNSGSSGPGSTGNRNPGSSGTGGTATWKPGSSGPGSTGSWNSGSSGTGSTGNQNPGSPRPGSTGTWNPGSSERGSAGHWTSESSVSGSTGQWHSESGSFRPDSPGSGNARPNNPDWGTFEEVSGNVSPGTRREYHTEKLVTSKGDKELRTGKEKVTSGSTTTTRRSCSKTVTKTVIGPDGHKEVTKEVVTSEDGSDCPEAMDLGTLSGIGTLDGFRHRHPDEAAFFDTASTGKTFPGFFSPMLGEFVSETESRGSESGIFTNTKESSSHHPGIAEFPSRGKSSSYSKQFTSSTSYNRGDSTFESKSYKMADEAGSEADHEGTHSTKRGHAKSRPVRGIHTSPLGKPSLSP
T1 sequence (P02675 45-491 limits assumed): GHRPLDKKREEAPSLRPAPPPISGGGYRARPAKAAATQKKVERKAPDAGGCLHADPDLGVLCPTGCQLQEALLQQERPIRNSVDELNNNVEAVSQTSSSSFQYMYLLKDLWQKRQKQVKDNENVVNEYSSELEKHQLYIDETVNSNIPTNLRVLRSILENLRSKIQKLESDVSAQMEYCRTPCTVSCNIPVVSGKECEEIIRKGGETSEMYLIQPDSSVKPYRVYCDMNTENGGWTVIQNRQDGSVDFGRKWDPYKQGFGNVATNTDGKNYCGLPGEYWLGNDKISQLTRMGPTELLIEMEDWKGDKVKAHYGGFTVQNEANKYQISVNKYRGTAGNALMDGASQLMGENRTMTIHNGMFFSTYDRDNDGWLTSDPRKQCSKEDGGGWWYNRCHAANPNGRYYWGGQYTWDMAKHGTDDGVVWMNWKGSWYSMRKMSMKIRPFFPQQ
T1 sequence (P02679 27-437 isoform P02679-2 limits assumed): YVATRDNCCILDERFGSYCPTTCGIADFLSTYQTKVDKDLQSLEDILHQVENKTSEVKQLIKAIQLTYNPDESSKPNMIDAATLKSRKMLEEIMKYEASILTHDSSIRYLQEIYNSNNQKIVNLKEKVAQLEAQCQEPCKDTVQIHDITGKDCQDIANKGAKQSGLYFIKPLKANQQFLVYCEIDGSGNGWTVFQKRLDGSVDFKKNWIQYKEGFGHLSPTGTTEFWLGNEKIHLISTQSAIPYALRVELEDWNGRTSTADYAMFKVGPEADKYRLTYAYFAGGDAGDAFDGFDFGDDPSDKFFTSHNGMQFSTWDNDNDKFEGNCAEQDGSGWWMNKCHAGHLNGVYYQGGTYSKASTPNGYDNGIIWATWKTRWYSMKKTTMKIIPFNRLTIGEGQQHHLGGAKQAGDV
Assay: Fibrin binding: binding of tPA to fibrin, tPA antigen in supernatant by ELISA
Conditions: 15 μg/ml peptide; 200 ng/ml single chain melanoma tPA, 200 μg/ml human fibrinogen; no peptide = 48
Description: Binding of tPA to fibrin was measured using the conventional method of Rijken et al., J. Biol. Chem. 257, 2920-2925 (1982). This method involves mixing thrombin with a solution containing tPA and fibrinogen, centrifuging the resulting clot and measuring the concentration of tPA antigen in the supernatant. In a final volume of 200 μl, the following were combined: 200 ng/ml single chain melanoma tPA, 200 μg/ml human fibrinogen, 15 μg/ml tPA peptide, 1.1 mg/ml bovine serum albumin, 0.55 mg/ml bovine gamma globulin and 10 mM ε-amino caproic acid in PBSAT. Controls omitted fibrinogen, peptide or both. Mixtures were clotted by the addition of 1 unit/ml bovine thrombin, incubated one hour at room temperature and centrifuged. tPA antigen in the supernatant was measured by conventional ELISA and the percentage bound calculated by difference using the antigen level of a control mixture with no fibrinogen as 0% bound. […] An ELISA assay kit for tPA and PAI-1 was purchased from American Diagnostica Inc. and assays were performed according to printed protocols supplied by the manufacturer with the kit except that a single lot of melanoma tPA from American Diagnostica Inc. (product 111, lot 47-01) was used as the antigen standard throughout this work and 5.0 mg/ml of BSA and 2.5 mg/ml of bovine gamma globulin were included in ELISA buffers.

“CDVPSCSTCGLRQYSQPQFRIKGGL-amide (CDVPSCSTCGLRQYSQPQFRIKGGL-NH2; cysteine pairing not given here) [Peptide 169, 25 amino acid synthetic peptide amide fragment of native human tPA]” and “CNSGRAQCHSVPVKSCSEPRCFNGG-amide (CNSGRAQCHSVPVKSCSEPRCFNGG-NH2; cysteine pairing not given here) [Peptide 147, 25 amino acid synthetic peptide amide fragment of native human tPA]” are the same in “% Bound (binding of tPA to fibrin)” value: 55% for the first, 55% for the second.

Going from “DGDAKPWCHVLKNRRLTWEYCDVPS-amide (DGDAKPWCHVLKNRRLTWEYCDVPS-NH2; cysteine pairing not given here) [Peptide 167, 25 amino acid synthetic peptide amide fragment of native human tPA]” to “EFCSTPACSEGNSDCYFGNGSAYRG [Peptide 160, 25 amino acid synthetic peptide fragment of native human tPA]”, the “% Bound (binding of tPA to fibrin)” value rises from 50% to 56%.

Compared with “ERFPPHHLTVILGRTYRVVPGEEEQ-NH2 [Peptide 176]”, “ERLKEAHVRLYPSSRCTSQHLLNRT-NH2 [Peptide 186]” is lower in “% Bound (binding of tPA to fibrin)” value: 53% for the first, 50% for the second.

Compared with “GNSDCYFGNGSAYRGTHSLTESGAS-NH2 [Peptide 161]”, “LCAGDTRSGGPQANLHDACQGDSGG-amide [Peptide 189, 25 amino acid synthetic peptide amide fragment of native human tPA]” is lower in “% Bound (binding of tPA to fibrin)” value: 57% for the first, 50% for the second.

First: LKNRRLTWEYCDVPSCSTCGLRQYS [Peptide 168, 25 amino acid synthetic peptide fragment of native human tPA]
Second: LLNRTVTDNMLCAGDTRSGGPQANL-NH2 [Peptide 188]
The “% Bound (binding of tPA to fibrin)” value of the first is higher: 54% for the first, 52% for the second.

First: LRSNRVEYCWCNSGRAQCHSVPVKS-amide (LRSNRVEYCWCNSGRAQCHSVPVKS-NH2; cysteine pairing not given here) [Peptide 146, 25 amino acid synthetic peptide amide fragment of native human tPA]
Second: LYFSDFVCQCPEGFAGKCCEIDTRA [Peptide 150, 25 amino acid synthetic peptide fragment of native human tPA]
The “% Bound (binding of tPA to fibrin)” value of the first is higher: 54% for the first, 52% for the second.

Going from “PEGFAGKCCEIDTRATCYEDQGISY-amide (PEGFAGKCCEIDTRATCYEDQGISY-NH2; cysteine pairing not given here) [Peptide 151, 25 amino acid synthetic peptide amide fragment of native human tPA]” to “QESSVVRTVCLPPADLQLPDWTECE-amide [Peptide 182, 25 amino acid synthetic peptide amide fragment of native human tPA]”, the “% Bound (binding of tPA to fibrin)” value falls from 53% to 52%.

Compared with “QLKSDSSRCAQESSVVRTVCLPPAD-amide (QLKSDSSRCAQESSVVRTVCLPPAD-NH2; cysteine pairing not given here) [Peptide 181, 25 amino acid synthetic peptide amide fragment of native human tPA]”, “QQHQSWLRPVLRSNRVEYCWCNSGR-amide (QQHQSWLRPVLRSNRVEYCWCNSGR-NH2; cysteine pairing not given here) [Peptide 145, 25 amino acid synthetic peptide amide fragment of native human tPA]” is higher in “% Bound (binding of tPA to fibrin)” value: 49% for the first, 56% for the second.

Going from RRGARSYQVICRDEKTQMIYQQHQS [Peptide 143] to “SMILIGKVYTAQNPSAQALGLGKHN-NH2 [Peptide 164]”, the “% Bound (binding of tPA to fibrin)” value falls from 57% to 53%.

Compared with SPSQEIHARFRRGARSYQVICRDEK [Peptide 142], “TAESGAECTNWNSSALAQKPYSGRR-NH2 [Peptide 154]” is lower in “% Bound (binding of tPA to fibrin)” value: 58% for the first, 56% for the second.

Going from WNSSALAQKPYSGRRPDAIRLGLGN [Peptide 155] to “YPSSRCTSQHLLNRTVTDNMLCAGD-amide [Peptide 187, 25 amino acid synthetic peptide amide fragment of native human tPA]”, the “% Bound (binding of tPA to fibrin)” value falls from 54% to 51%.

Going from “YSGRRPDAIRLGLGNHNYCRNPDRD-NH2 [Peptide 156]” to “YVFKAGKYSSEFCSTPACSEGNSDC-amide (YVFKAGKYSSEFCSTPACSEGNSDC-NH2; cysteine pairing not given here) [Peptide 159, 25 amino acid synthetic peptide amide fragment of native human tPA]”, the “% Bound (binding of tPA to fibrin)” value rises from 52% to 54%.
